Here are results for 2 molecules from PMC10516925, “Determining subunit-subunit interaction from statistics of cryo-EM images: observation of nearest-neighbor coupling in a circadian clock protein complex” (Nature Communications, 2023).

For one series, the target named is KaiC-AA (S431A, T432A) (UniProt Q79PF4). Kind of series: cryo-EM structure; single-particle cryo-EM of pure KaiC-AA or KaiC-EE, 0.35 ug/ul in 20 mM Tris-HCl (pH 8.0), 150 mM NaCl, 5 mM MgCl2, 0.5 mM EDTA, 1 mM ATP; incubated at 30 °C for 6 h.
Series [1] deals with the molecule itself. The description is as above.

In the case of “KaiC-AA (S431A, T432A) (from UniProt Q79PF4 14-484) (natural protein)”, the stoichiometry N in the series with KaiC-AA (S431A, T432A) came to 6.

B1: KaiC-EE (S431E, T432E) (natural protein)
chain: EHQAIAKMRTMIEGFDDISHGGLPIGRSTLVSGTSGTGKTLFSIQFLYNGIIEFDEPGVFVTFEETPQDIIKNARSFGWDLAKLVDEGKLFILDASPDPEGQEVVGGFDLSALIERINYAIQKYRARRVSIDSVTSVFQQYDASSVVRRELFRLVARLKQIGATTVMTTERIEEYGPIARYGVEEFVSDNVVILRNVLEGERRRRTLEILKLRGTSHMKGEYPFTITDHGINIFPLGAMRLTQRSSNVRVSSGVVRLDEMCGGGFFKDSIILATGATGTGKTLLVSRFVENACANKERAILFAYEESRAQLLRNAYSWGMDFEEMERQNLLKIVCAYPESAGLEDHLQIIKSEINDFKPARIAIDSLSALARGVSNNAFRQFVIGVTGYAKQEEITGLFTNTSDQFMGAHSITDSHIEEITDTIILLQYVEIRGEMSRAINVFKMRGSWHDKAIREFMISDKGPDIKDSFRNFERIISGSPTRI
notes: source: hexamer fractions selected; not shown: His6, N-terminal, cleaved
B1: the “stoichiometry N” value in series [1] is 6.
